In the supplement of paper PMC9170038:

These sequences were tested on MS2 coat protein (assay: apparent KD of MS2 coat protein; higher = weaker reporter binding). Settings: Eterna round: R107; input ligand: arginine 13.2 mM.
Protocol: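 RNA-MaP round R107: designed RNA switches with theophylline, tryptophan, arginine or FMN aptamers are transcribed on-chip within common flanks. They are titrated with SNAP-549-labelled MS2 coat protein in RNA-MaP buffer (100 mM Tris pH 7.5, 80 mM KCl, 4 mM MgCl2), without ligand or with the indicated ligand. Median apparent KD per design.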
With “UCGCUCUGGGUGAAAUCCGGAGAUGUGGAAGGAGCGCUCGAAAGAGCAGGUAGGUCGCCAACGGACAUGAGGAUCACCCAUGUAC [Same State - Arginine A (Freestyle 20)]” the “apparent KD of MS2 coat protein” value was 31 nM. “AUUCAUGGAAACAUGAGAUAUCCUACCGGUCGAGGACCGGUACGGCCGCCACUCGGUUGGUGGCACAUGAGGAUCACCCAUGUUA [SS Tryp A #12]” was tested, and the “apparent KD of MS2 coat protein” value was 77.6 nM. In the case of “AAAUAAAUAACUGAUACCAGUGGACUGACAUGAGGAUCACCCAUGUUGGGUUUUGUUGUCCACCCUUGGCAGCGGGCAUAUAAAA [#25 Exclusion-TheophyllineB]”, the “apparent KD of MS2 coat protein” value is reported as 23.4 nM. “GCCCUGCGCCCGGGACCGGCAAGAUCCAUGCGAGGACCGGUACGGCCGCCACUCGCAGACGUACAUGAGGAUCACCCAUGUCCUC [theeternabot_exclusion_MS2_Trp_A_24]” was tested, and the “apparent KD of MS2 coat protein” value was 140 nM. In the case of “GAUAUUUGAAAACAAAUAUCAGUGGGUGAACGAGGACCGGUACGGCCGCCACUCGGACAUGAGGAUCACCCAUGUCCAUGUGAAA [AstrosExyTryA#7]”, the “apparent KD of MS2 coat protein” value is reported as 13.9 nM. For “GUCAGUAGAACAGAUACCAGUCAAAGGCUGUGAUCUCAUAACAUGAGGAUCACCCAUGUUGACCCUUGGCAGCUGUGGGCGAGGG [#20 Exclusion-TheophyllineB]”, the “apparent KD of MS2 coat protein” value was 26 nM. With “GAACAGUCGGACAUGAGGAUCACCCAUGUGCGAGGACCGGUACGGCCGCCACUCGACAAGGGCGGUCCCGAAGCGAACAUACGCG [Cecearla]” the “apparent KD of MS2 coat protein” value was 14.9 nM. With “AUAAUAAAGUCGGCCGCCACUAUAAACAUGAGGAACAUGAGGAUCACCCAUGUAUGAGGAUCACCUAGGACCGGGACAAAUAUUA [AstrosExyTryB#3]” the “apparent KD of MS2 coat protein” value was 47.3 nM. With “ACCAGGGUCUGAAGGAGCGCGAUUACAUGAGGAUCACCCAUGUGAAAUGGUAGAUGAUACUCGCAGGUAGGUCGCAGUACUUGGA [Same State Arginine B GF 14]” the “apparent KD of MS2 coat protein” value was 53.3 nM. For “CCUCAGCAAUUGGAUACCAGUACAUCGUAAGACAUGAGGAUCACCCAUGUGGGCUUGACAUACCCUUGGCAGCCAUCCUUGAUCC [theeternabot_sameState_MS2_Theo_B_3]”, the “apparent KD of MS2 coat protein” value was 101 nM. In the case of “GGCACGUACGGAAGGAGCGACUGUUCGACGUGGGUACAUGAGGAUCACCCAUGUCUCCGCAGUCAGGUAGGUCGCCGUACGUGCC [EAB NP+V+V2 #21 +-Same Structure]”, the “apparent KD of MS2 coat protein” value is reported as 34.3 nM. For “UCGUGUGUUUCGGAUACCAGUGUGGUCGAUACAUGAGGAUCACCCAUGUGAGAGGAGGUACACCCUUGGCAGCUGGCUGUUGCGG [qqwmullin]”, the “apparent KD of MS2 coat protein” value was 39.7 nM. For “ACCGCAGGUCCUGAUACCAGAGACAUGAGGAUCACCCAUGUCCGAUCGUCCUGCCUCAGGCUCCCUUGGCAGCAGGGCUUGUCCU [Exclusion Theophylline B GF8]”, the “apparent KD of MS2 coat protein” value was 14.1 nM. For “GGUAUGUAUUCGGAAACGAAUGCAUACCAACGAGGACCGGUACGGCCGCCACUCGGGCGGCGAUCACAUGAGGAUCACCCAUGUA [Ex Tryptophan A 2]”, the “apparent KD of MS2 coat protein” value was 28 nM. In the case of “GCUAGUGGCAGAAGGAGCGGCAUACUUGCAAGUGACAUGAGGAUCACCCAUGUAAGGGAAUGCCAGGUAGGUCGCUGCCACUAGC [EAB NP+V+V2 #1 +-Same Structure]”, the “apparent KD of MS2 coat protein” value is reported as 34.9 nM. In the case of “UACUUGCUGACGGCCGCCACUAGAACAUGAGGAUCACCCAUGUACCUGGUCCUUCAUGGGUGGACUAGGACCGGGUCAGCAAGAU [(Trp1)-(Ms2)-(T)'-(M)'-(Trp2)_Design4]”, the “apparent KD of MS2 coat protein” value is reported as 186 nM. In the case of “UCAGUGGGUUCGGCCGCCACUUGAGUGAUGGUGCCUCAAUAAGUCUACAUGAGGAUCACCCAUGUAAGGACCGGGAAUUUUAUGG [theeternabot_exclusion_MS2_Trp_B_19]”, the “apparent KD of MS2 coat protein” value is reported as 33.3 nM. For “AAAGCCUUGCCCGGUGUUCCGAAAGUGGAAGGAGCGCACAUUGGUGCAGGUAGGUCGCCACAUGAGGAUCACCCAUGUCUAGGCU [Isbeat]”, the “apparent KD of MS2 coat protein” value was 42.5 nM. For “UCGCUCGCCGGAAGGCGAGCGAGUUGCGAUACCAGCCCGGAAACGGGCCCUUGGCAGCGCACAUGAGGAUCACCCAUGUCAUGUU [#1 Exclusion - Theophylline A Attempt #6 (HarryS)]”, the “apparent KD of MS2 coat protein” value was 24.3 nM. “UUACACAUCUCGGCCGCCACUGGCUUCAAAAUAAUGUGUACAUGAGGAUCACCCAUGUCCGAGCUCAGGACCGGGAGCAAAGAAG [SS Tryp B #14]” was tested, and the “apparent KD of MS2 coat protein” value was 21.1 nM. For “GAACAUAAGGAUACUAUAAUAAGUACAGAAGGAGCGAGCGGAAGCUCAGGUAGGUCGCUGGGUAACAUGAGGAUCACCCAUGUUG [SSArg A #14 Road to perfection1]”, the “apparent KD of MS2 coat protein” value was 23.1 nM. “AGGAAACAACAUGAGGAUCACCCAUGUGAUACCAGUCAAAUAAAAGACCCUUGGCAGCACACAUGACAUGAGGAUCACCCAUGUA [AstrosSSTheA#1]” was tested, and the “apparent KD of MS2 coat protein” value was 24.8 nM. For “UUUGAUAGGACAGAUACCAGCGUGUUGUUGAACAUGAGGAUCACCCAUGUAGUGAUCGAGCGCCCUUGGCAGCUGGUUUGUUAGG [7.O]”, the “apparent KD of MS2 coat protein” value was 102 nM. With “AGUAGACACGCGGCCGCCACUUGAGGAUCACCCAAGUGGUGUGUACUUGAAACAAGUGCACAAUCAAGGACCGGGCGUGUCUACA [Omei Tryp B SS D v4]” the “apparent KD of MS2 coat protein” value was 5.02 nM. For “AAACGUUGCUGCGAUACCAGACAUGAGGAUCACCCAUGUACCAAGGUAAAGAAAUAACGUGUCCCUUGGCAGCGCAGCAACGAAA [MAT - Exclusion Theophlline B - Mod of Eli - D12]”, the “apparent KD of MS2 coat protein” value was 8.7 nM. In the case of “AGCACUGUGACGGCCGCCACUACAUAUAGGGUGGUCAGGUUCAUAAUACAUGAGGAUCACCCAUGUAGGACCGGGUCUCAGUGCA [Omei Trp Exc B A v5]”, the “apparent KD of MS2 coat protein” value is reported as 12.5 nM. For “GUCCACAGCCGAAGGAGCGCUAGAAGAUGACAUGAGGAUCACCCAUGUGUGUGAUGUGGCUAGCAGGUAGGUCGCGGAGUGGAUU [Exclusion - Arginine B (Freestyle 14)]”, the “apparent KD of MS2 coat protein” value was 20.5 nM. With “AACAUGAGGAUCACCCAUGUCUGAACUGAAGGAGCGCUAAAUAAGGCAGGUAGGUCGCGGAAUUUUGUGUACAUAUGUAUAUGGG [9.H]” the “apparent KD of MS2 coat protein” value was 21.7 nM. “UCGCUCUGGGUGAGAUCCGGAGAUGUGGAAGGAGCGCUGGUUCCAGCAGGUAGGUCGCCAACGGACAUGAGGAUCACCCAUGUAC [Same State - Arginine A (Freestyle 13)]” was tested, and the “apparent KD of MS2 coat protein” value was 39.2 nM. With “UGAUUGAACGGAAGGAGCGUGAAGAGAGAGAAACAUGAGGAUCACCCAUGUAGAGAGAGAACACAGGUAGGUCGCCGAGAGAUUG [11.B]” the “apparent KD of MS2 coat protein” value was 14.5 nM. “UCACAUGAGGAUCACCCAUGUGUCAGAGAAGGAGCGGCCGCAAGGCCAGGUAGGUCGCUCGGGUAUUGUGAGGUUCACCCGUGUG [#1 Exclusion - Arginine A Attempt #12 (Inspired by cyborg)]” was tested, and the “apparent KD of MS2 coat protein” value was 26.7 nM. With “UUGUACGAAACUGAUACCAGCCAGCAAUGCCACCAAGAGCACAUGAGGAUCACCCAUGUUGGCCCUUGGCAGCAGGACAAUAAGC [theeternabot_exclusion_MS2_Theo_B_3]” the “apparent KD of MS2 coat protein” value was 7.44 nM. For “AACAUGAGGAUCACCCAUGUCCUCAUGAUUCGAGGACCGGUACGGCCGCCACUCGGUCCUCGCGAGGAGGAGUCAAAGACUCCAA [Omei Trp A SS A v2]”, the “apparent KD of MS2 coat protein” value was 360 nM. For “UGUCCUCAUGCGGCCGCCACUGUCGGCCGCCACUAAACAUGAGGAUCACCCAUGUAGGACCGGGACAGGACCGGGCAUGGGUGCU [TryBS - #DoubleAptamer]”, the “apparent KD of MS2 coat protein” value was 132 nM. With “CCUAUGCAGUCGGCCGCCACUGAUAAAGUUAUCUUUACCUCAGAAACAUGAGGAUCACCCAUGUACAGGACCGGGACUGUAUAGG [Ex Tryptophan B 18]” the “apparent KD of MS2 coat protein” value was 14.8 nM.
